How the values were obtained:
VPAC-1 receptors = target: T1, VPAC-1 receptors (Homo sapiens, UniProt P32241); assay: Receptor targeting: competition with VIP (10-28) antagonist, MTT assay in HT29 cells; assay type: cell-based; details: 24 h
T1 construct: endogenous in cells; host or cells: HT29 colon carcinoma cells
T1 sequence (P32241 31-457): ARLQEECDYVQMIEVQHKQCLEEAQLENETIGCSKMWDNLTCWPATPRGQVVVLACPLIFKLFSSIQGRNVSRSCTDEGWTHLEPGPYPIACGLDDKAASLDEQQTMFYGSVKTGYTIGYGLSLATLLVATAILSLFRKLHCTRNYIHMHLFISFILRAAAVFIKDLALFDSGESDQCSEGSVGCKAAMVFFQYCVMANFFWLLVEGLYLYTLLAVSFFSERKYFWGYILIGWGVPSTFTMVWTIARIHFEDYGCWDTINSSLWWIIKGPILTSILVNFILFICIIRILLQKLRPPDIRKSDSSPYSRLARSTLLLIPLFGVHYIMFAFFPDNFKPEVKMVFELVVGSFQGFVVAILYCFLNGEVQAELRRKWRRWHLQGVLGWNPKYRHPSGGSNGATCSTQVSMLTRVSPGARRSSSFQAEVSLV
Procedure: To further confirm the receptor mediated targeting of the protein, HT29 cells were pre-incubated with varying concentrations of VIP antagonist, VIP (10-28) peptide [Gozes I., et al., Cell Mol. Neurobiol., 1995, 15, 675] for 30 minutes followed by treatment with 10 μM of fusion protein. […] Similar, observation was made when the cells were treated with 5 μM of fusion protein, although this time the receptors were saturated by 25 μM concentration of the antagonist (FIG. 14b).
Cells were seeded in 96-well microplates, followed by the addition of various concentrations of the VIP antagonist VIP (10-28) Fragment for 30 minutes, followed by the addition of fusion protein at a fixed concentration. VIP (10-28) Fragment was allowed to remain in culture wells for whole of the experiment. After a 24-hour incubation, the MTT assay was performed as above.

[1] = target: T2, VPAC 1 receptors expressed on A549 cells (Homo sapiens, UniProt P32241); assay: Immunocytochemical staining for cell surface receptors on A549 cells; assay type: binding; details: A549 cells pre-treated, then anti-VPAC-1 immunostaining
T2 construct: the receptors were overexpressed in the A549 cell line; endogenous in cells; host or cells: A549 human lung carcinoma cells (acetone-fixed on slides)
T2 sequence (P32241 31-457): T1 sequence (P32241 31-457)
Procedure: Similarly, when, the cells were treated with fusion protein and immuno-stained with anti-BID. […] A similar observation was made when A549 cells were pre-treated with VIP antagonist, VIP (10-28) followed by fusion protein and immunostaining with anti-BID (FIG. 15e).
Cultured (A549 human lung carcinoma) cells were detached with trypsin/EDTA and pelleted by low-speed centrifugation. The cells were resuspended in PBS. Cell suspensions were coated onto poly-L-lysine coated glass slides, dried and then fixed for 10 min in acetone at −20° C. After drying for 2 h, slides were rinsed in PBS and then treated for 5 min with water/H2O2 in order to block endogenous peroxidase. Slides were again rinsed again in PBS and treated with normal rabbit and goat serum to block background staining. Slides were then incubated with antagonist, VIP(10-28) and/or fusion protein for 1 hr each. Slides were again washed with PBS and incubated with rabbit-anti-BID antibody (dilution 1:1000) or goat anti-VPAC 1 antibody (dilution 1:1000) for 1 h. Slides were again washed in PBS and incubated with […] IgG peroxidase labelled antibodies for anti-BID and anti-VPAC 1 primary antibodies respectively, for 1 h followed by addition of the 3,3′-diaminobenzidine-tetrachloride (DAB) substrate and hydrogen peroxide in PBS. […]

VIP (10-28) peptide: VIP antagonist, VIP (10-28) peptide (YTRLRKQMAVKKYLNSILN)
concentration of antagonist giving complete loss of cytotoxicity of fusion protein (VPAC-1 receptors; HT29 pre-incubated 30 minutes with antagonist, then 10 μM of fusion protein): 100 µM | concentration of antagonist at which the receptors were saturated (loss of cytotoxicity) (VPAC-1 receptors; HT29 pre-incubated with antagonist, then 5 μM of fusion protein): 25 µM | availability of VPAC-1 receptors to anti VPAC-1 after pre-treatment [1]: significant loss in the immunostained cell population

— patent US20100184651A1, “TARGETED FUSION PROTEINS FOR CANCER THERAPY” (Dabur Pharma Limited, priority 2005, published 2010)
